Assay [1] deals with fibrinogen fragment D (human). Briefly: fluorescence polarisation; competitive fluorescence anisotropy; unlabeled construct titrated into mixtures of fixed [5F]PR–(R1 → R7) with two frag D concentrations; cubic equation, fit together with the direct titrations. A general note: In fluorescence polarisation assays a small probe gives low polarisation when free and higher when bound to something large.

Assay [2] has as its target fibrinogen fragment D (human). Briefly: fluorescence polarisation; fluorescence anisotropy; [5F]PR–(R1 → R7) titrated with frag D; 'the same buffer'; quadratic fit, n not fixed; independent, noncooperative sites assumed.
For assay [3], the target named is fibrinogen fragment D (human). Briefly: native gel or EMSA; incubated 30 min at 25 °C in 50 mM Hepes, 110 mM NaCl, 5 mM CaCl2, 1 mg/ml PEG-8000, 10 μM FFR-CK and FPR-CK with molar excess of frag D; 6% Tris–glycine gel without SDS, 4 °C; GelCode Blue and fluorescence.
Assay [4] deals with fibrinogen fragment D (human). Briefly: other fluorescence titration; fluorescein-labeled construct at fixed concentration titrated with frag D; fluorescence intensity; 25 °C; 50 mM Hepes, 110 mM NaCl, 5 mM CaCl2, 1 mg/ml PEG-8000, pH 7.4, 10 μM FPR-CK; quadratic fit; n fixed to 1 for the Ala constructs and MP.
Assay [5] deals with fibrinogen fragment D (human). Briefly: other fluorescence titration; fluorescence intensity; 20 mM sodium phosphate, 150 mM NaCl, 1 mg/ml PEG-8000, 10 μM FPR-CK, pH 7.0; n fixed to 1.
For assay [6], the target named is fibrinogen fragment D (human). Briefly: other fluorescence titration; fluorescence intensity; 20 mM sodium phosphate, 150 mM NaCl, 1 mg/ml PEG-8000, 10 μM FPR-CK, pH 7.4; n fixed to 1.
In assay [7] the target is staphylocoagulase SC(1–660), full-length (Staphylococcus aureus Newman D2 Tager 104). Briefly: native gel or EMSA; incubated 30 min at 25 °C in 50 mM Hepes, 110 mM NaCl, 5 mM CaCl2, 1 mg/ml PEG-8000, 10 μM FFR-CK and FPR-CK with molar excess of frag D; 6% Tris–glycine gel without SDS, 4 °C; GelCode Blue and fluorescence. (In EMSA bound probe runs differently from free probe, usually more slowly.)

The target of assay [8] is fibrinogen fragment D fragment D (Homo sapiens) (UniProt P02671). Conditions: cited from earlier work.
fibrinogen fragment D fragment D (Homo sapiens), sequence (P02671 20-866, chain 1 of 3): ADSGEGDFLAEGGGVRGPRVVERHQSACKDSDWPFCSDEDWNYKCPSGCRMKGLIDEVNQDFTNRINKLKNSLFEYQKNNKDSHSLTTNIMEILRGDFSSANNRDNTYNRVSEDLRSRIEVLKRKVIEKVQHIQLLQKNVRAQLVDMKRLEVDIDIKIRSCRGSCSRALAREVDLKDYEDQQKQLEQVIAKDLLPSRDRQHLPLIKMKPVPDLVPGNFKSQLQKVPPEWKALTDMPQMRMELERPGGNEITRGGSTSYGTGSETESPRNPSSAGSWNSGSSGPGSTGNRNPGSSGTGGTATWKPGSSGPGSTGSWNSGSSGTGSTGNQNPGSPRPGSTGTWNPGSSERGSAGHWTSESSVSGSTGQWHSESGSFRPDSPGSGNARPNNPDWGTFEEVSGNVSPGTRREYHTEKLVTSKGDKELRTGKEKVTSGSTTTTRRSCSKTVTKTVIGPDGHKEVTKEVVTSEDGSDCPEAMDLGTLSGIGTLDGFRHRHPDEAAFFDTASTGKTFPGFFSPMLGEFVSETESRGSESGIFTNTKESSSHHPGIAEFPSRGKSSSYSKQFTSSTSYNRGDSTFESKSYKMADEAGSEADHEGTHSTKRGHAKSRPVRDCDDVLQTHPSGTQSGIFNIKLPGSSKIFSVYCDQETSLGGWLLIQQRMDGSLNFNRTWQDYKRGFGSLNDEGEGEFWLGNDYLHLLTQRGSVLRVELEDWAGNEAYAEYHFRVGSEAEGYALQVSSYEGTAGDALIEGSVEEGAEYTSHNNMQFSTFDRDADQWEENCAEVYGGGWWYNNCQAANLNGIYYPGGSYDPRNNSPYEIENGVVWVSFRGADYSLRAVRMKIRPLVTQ
fibrinogen fragment D fragment D (Homo sapiens), sequence (P02675 31-491, chain 2 of 3, further chain): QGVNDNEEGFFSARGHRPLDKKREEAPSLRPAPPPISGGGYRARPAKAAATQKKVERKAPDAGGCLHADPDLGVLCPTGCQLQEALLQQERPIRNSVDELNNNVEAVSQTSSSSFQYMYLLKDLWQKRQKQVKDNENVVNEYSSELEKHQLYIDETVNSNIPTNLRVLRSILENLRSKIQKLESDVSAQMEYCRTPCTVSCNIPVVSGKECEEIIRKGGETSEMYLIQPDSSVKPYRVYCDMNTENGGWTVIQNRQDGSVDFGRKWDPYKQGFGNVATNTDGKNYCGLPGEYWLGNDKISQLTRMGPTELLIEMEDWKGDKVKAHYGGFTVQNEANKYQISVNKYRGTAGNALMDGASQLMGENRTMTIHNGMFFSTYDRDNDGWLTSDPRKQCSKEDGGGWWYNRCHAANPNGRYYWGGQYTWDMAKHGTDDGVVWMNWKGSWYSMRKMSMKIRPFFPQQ
fibrinogen fragment D fragment D (Homo sapiens), sequence (P02679 27-453, chain 3 of 3, further chain): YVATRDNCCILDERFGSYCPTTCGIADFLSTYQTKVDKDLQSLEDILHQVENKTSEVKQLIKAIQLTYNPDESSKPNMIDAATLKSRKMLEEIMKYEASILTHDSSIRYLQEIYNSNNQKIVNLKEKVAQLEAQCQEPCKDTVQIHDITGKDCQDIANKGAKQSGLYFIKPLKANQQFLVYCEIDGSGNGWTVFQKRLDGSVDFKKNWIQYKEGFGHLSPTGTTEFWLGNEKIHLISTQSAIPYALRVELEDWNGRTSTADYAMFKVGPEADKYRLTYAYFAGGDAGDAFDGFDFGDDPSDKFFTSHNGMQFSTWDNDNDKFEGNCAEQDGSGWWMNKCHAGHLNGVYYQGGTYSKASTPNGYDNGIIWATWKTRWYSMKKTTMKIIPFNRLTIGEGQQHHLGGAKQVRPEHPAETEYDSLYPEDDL

We go through 16 substances from article PMC8761706.

Several values for one entry are separate records, joined by “and”; a condition that tells them apart may be missing. Equal entries are not always repeated.

Turning to “PR–R1R2R3 (unlabeled competitor) (domain or fragment)”, in assay [1], the stoichiometry N (mol frag D/mol repeat) is 3.3 and 3.5 and 2.5. Turning to “PR–R1R6R7 (unlabeled competitor) (domain or fragment)”, in assay [1], the Kd (as a rule, the concentration at which binding is half-saturated) came to 8 nM and the stoichiometry N (mol frag D/mol repeat) was 3.

Take “PR–R3R4R7 (unlabeled competitor) (domain or fragment)”: in assay [1], the Kd was determined as 42 nM and the stoichiometry N (mol frag D/mol repeat) stood at 2.8. “PR–R3R6R7 (unlabeled competitor) (domain or fragment)”: in assay [1], the Kd was 42 nM and the stoichiometry N (mol frag D/mol repeat) came to 3. Turning to “[5F]PR–(R1 → R7), full-length C-terminal repeat construct (domain or fragment)”, in assay [2], the stoichiometry N (mol frag D/mol repeat) was 5.2 and 4.8 and 5.1. In assay [3], this substance returned a stoichiometry N (frag D per construct) of 7. In assay [4], [5F]PR–R1 (domain or fragment) registered a stoichiometry N (mol frag D/mol repeat) of 1. Substance [5F]PR–R1R2R3 (domain or fragment) returned a stoichiometry N (frag D per construct) in assay [3] of 3.

In assay [3], [5F]PR–R1R6R7 (domain or fragment) displayed a stoichiometry N (frag D per construct) of 3. For [5F]PR–R2 (domain or fragment), in assay [4], the Kd was determined as 130 nM and the stoichiometry N (mol frag D/mol repeat) amounted to 0.9.

In assay [4], [5F]PR–R3 (domain or fragment) displayed a Kd of 99 nM and a stoichiometry N (mol frag D/mol repeat) of 1.1.

Regarding [5F]PR–R6 (domain or fragment), in assay [4], the Kd was found to be 115 nM and the stoichiometry N (mol frag D/mol repeat) is 0.8. Consider [5F]PR–R7 (domain or fragment), for which the Kd in assay [5] came out at 3000 nM; in assay [4] it was 112 nM; in assay [6], 27 nM. The same substance came in with a stoichiometry N (mol frag D/mol repeat) in assay [4] of 0.8. With [5F]PR–R7-SETNA (domain or fragment), the Kd in assay [4] was 120 nM. Take “[5F]ProT, prothrombin labeled at the active site with 5-fluorescein (natural protein)”: in assay [7], the stoichiometry N (usually the number of molecules, sites or subunits per partner or assembly) is 1 mol/mol. For “staphylocoagulase PR-R1 (from UniProt P07767)”, in assay [8], the Kd is 36 nM. In the case of “staphylocoagulase SC(1–660), full-length (natural protein)”, the stoichiometry N (frag D per SC(1–660)) in assay [3] is 5 and 6.
